Where a chain is given by its changes, count along the chain named. Names may count otherwise.

Assay [1] deals with T1, trastuzumab (Herceptin).
T1 construct: also called Tmab; not shown: the constant regions
As to the kind of experiment: ELISA screen of colony lysate on coated trastuzumab, 40 h with 1 uM 1HE, high-affinity panning.

The target of assay [2] is T1, trastuzumab (Herceptin). The assay can be described thus: dissociation ELISA on covalently immobilised trastuzumab. The procedure: (§1) Individual mutants were expressed and purified using a nickel chromatography resin, as previously described (16). […] The following day, unreacted sites were blocked with 10 mM ethanolamine in a 100 mM sodium bicarbonate buffer pH 9.5 for one hour. Purified mutants were incubated for one hour and subsequently washed three times with wash buffer. Following washing, 0.1% BSA PBS solution was added to the initial timepoint wells. […] At individual time points, the buffer in the time point wells was removed by pipetting, and the wells washed three times with wash buffer and 0.1% BSA PBS added. At the terminal time point, all wells were washed three times with wash buffer, and secondary antibodies added at the dilutions listed above for one hour at room temperature. Following secondary incubation, plates were washed three times with wash buffer and three times with dH₂O. 250 μl of 4 mg/ml PnPP in a 10 mM diethanolamine pH 9.8 buffer was added to each well, and absorbance values read for 10 minutes at 30-second intervals. The change in absorbance per minute for each well was divided by the average change in absorbance per minute for the initial time point wells, and the resulting dissociation curves fit to a monoexponential decay function in GraphPad Prism 7 (GraphPad, San Diego, Calif.). Each time point was run in triplicate for each mutant.

In assay [3] the target is T1, trastuzumab (Herceptin). As to the kind of experiment: SPR, trastuzumab immobilized by amine coupling, 10-hour dissociation, 1:1 Langmuir fit. The procedure:
(§2) A mobile phase of 0.05% Tween-20 PBS pH 7.4 was used at a flow rate of 25 μL/minute. […] Association and dissociation rate constants were determined using a 1:1 Langmuir binding model in the biosensor data analysis software Scrubber (BioLogic Software, Canberra, Australia).
(§3) An optimal range was 10 pM to 10 nM.

Assay [4] addresses T1, trastuzumab (Herceptin). The assay can be described thus: inferred from the IC50 of the SKOV3 cell competition assay with 200 pM 125I-trastuzumab. The procedure:
(§4) SKOV3 cells (ATCC, HTB-77) were grown in complete McCoys 5a media to confluency in a T75 flask and dissociated using 50 μM EDTA. […] Cells were incubated at 4° C. for 90 minutes to reach binding equilibrium followed by 4 washes with 1 mL of 1% BSA PBS buffer to remove non-specific radioactivity. Cell-associated radioactivity was assessed through gamma counting.
as §3

Assay [5] deals with T1, trastuzumab (Herceptin). As to the kind of experiment: SPR, trastuzumab immobilized by amine coupling, 1HE at 10, 20 and 35 nM, 1:1 Langmuir fit. The protocol:
as §2, §3

Assay [6] deals with T1, trastuzumab (Herceptin). As to the kind of experiment: competition on SKOV3 cells, 125I-trastuzumab with increasing 1HE, cell-associated radioactivity. The procedure: Points represent the mean of triplicate samples with standard deviation error bars.
as §4

The target of assay [7] is T1, trastuzumab (Herceptin). The assay can be described thus: competition on SKOV3 cells, 200 pM 125I-trastuzumab with increasing 1HE, 4 C, 90 minutes, gamma counting. The procedure: as §4, §3
For assay [8], the target named is T1, trastuzumab (Herceptin). The assay can be described thus: dissociation ELISA on covalently immobilised trastuzumab, 1 uM 1HE in the buffer. The protocol:
as §1

The target of assay [9] is T1, trastuzumab (Herceptin). The assay can be described thus: dissociation ELISA, trastuzumab covalently immobilized, 1 uM 1HE in buffer to block rebinding, monoexponential fit. The procedure: as §1
Assay [10] has as its target T1, trastuzumab (Herceptin). As to the kind of experiment: dissociation ELISA on covalently immobilised trastuzumab, 500 nM trastuzumab in the buffer. The protocol:
as §1

The target in assay [11] is T1, trastuzumab (Herceptin). The assay can be described thus: ELISA screen of colony lysate on coated trastuzumab, low-affinity panning.

B1: 2D7 (VHH)
VHH: EVQLVESGGGLVQAGDSLTLSCAASGRTFSSVAMGWFRQAPGKERKFVANISWNGDSTYYTDSVKGRFTISRDNAKNTVYLQMSSLKPEDTAVYYCAADVRWAGDGHRADYWGQGTQVTVSS
For the molecule B1, in assay [1], the estimated half-life is 43.5 h.

B2: 1HE, anti-idiotypic camelid single domain antibody against trastuzumab (VHH)
VHH: B1 VHH with A103T
notes: also called wild-type 1HE; cold-1HE
The molecule B2 returned a T1/2 in assay [2] of 17.4 h. Further, the half-life of dissociation in [3] came to 26.6 h. Besides, the Kd in assay [4] is at most 0.122 nM; in assay [5], 0.0335 nM. Besides, the IC50 in assay [6] worked out at 0.129 nM; in [7] it was 0.122 nM.

B3: 2E11 (VHH)
VHH: B1 VHH with K87E, A103T
notes: also called 1HE mutant 2E11
For B3, the estimated half-life in assay [1] is 17.7 h.

B4: 2A4 (VHH)
VHH: B1 VHH with T58A, A103T
notes: also called 1HE mutant 2A4
As to B4, the T1/2 in assay [8] is 187 h. Moreover, in assay [1], the estimated half-life is 70.8 h.

B5: 1HE mutant 2E10 (L18Q, T103A) (VHH)
VHH: B1 VHH with L18Q
In the case of B5, the estimated half-life in assay [1] is 35.7 h. Further, the estimated binding half-life in [9] was 482 h.

B6: 1F3 (VHH)
VHH: B1 VHH with D56Y, A103T
For B6, the T1/2 in assay [10] came to 5.1 h.

B7: 1G1 (VHH)
VHH: B1 VHH with N54D, D56G, N74S, A103T
As to B7, in assay [10], the T1/2 worked out at 12.1 h.

B8: 1G11 (VHH)
VHH: B1 VHH with G10D, S31G, D56V, A103T
For the molecule B8, in [10], the T1/2 was found to be 35.1 h.

B9: 2F9 (VHH)
VHH: B1 VHH with A103T, D105E
notes: also called 1HE mutant 2F9
Molecule B9 registered a T1/2 in assay [8] of 55.5 h. Besides, in assay [1], the estimated half-life was 30.8 h.

B10: 2H2 (VHH)
VHH: B1 VHH with G9D, T28A, A103T
notes: also called 1HE mutant 2H2
For the molecule B10, the T1/2 in assay [8] was 5.4 h. The estimated half-life in [1] is 26.9 h.

B11: 2C4 (VHH)
VHH: B1 VHH with Q117L
notes: also called 1HE mutant 2C4
As for B11, in [8], the T1/2 was 84.1 h.

B12: 1C3 (VHH)
VHH: B1 VHH with A97V, A103T
For B12, the T1/2 in assay [10] is 12.1 h.

B13: 1E10 (VHH)
VHH: B1 VHH with D16A, S17G, A103T
notes: also called 1HE mutant 1E10
B13: the estimated half-life in [11] is 19.3 h.

B14: 2D11 (VHH)
VHH: B1 VHH with K76R, A103T
notes: also called 1HE mutant 2D11
For B14, the T1/2 in [8] came out at 8.8 h. Also, in assay [1], the estimated half-life is 29.6 h.

B15: 2G2 (VHH)
VHH: B1 VHH with A103T, Y111N
Turning to B15, the estimated half-life in assay [1] is 15.7 h.
